This is an account of results in US20090035266A1 (US Dept. of Health and Human Services, published 2009).

A value given as a limit tells only on which side of the number the result lay.

B1: MUC-1 peptide (peptide)
peptide: ALWGQDVTSV
notes: Positive control of the T2 assay; also called positive control
B2: P16 (native) PAGE4 peptide, amino acids 16-25 (peptide)
peptide: QEAPDVVAFV
notes: Synthetic peptide, purity >95%; also called P16-25

One assay deals with T1, HLA-A2 molecules on T2 cells (human).
T1 construct: whole, on cells; MHC class I molecule on the cell surface; also called HLA-A2.1
In words: T2 cells loaded overnight with 12.5 µg/ml peptide, washed, brefeldin A, surface HLA-A2 by flow cytometry (FIG. 1B). The procedure: FIGS. 1A and 1B are line graphs showing the binding of native PAGE4 peptides and their agonist peptides to HLA-A2 molecules. Peptides were analyzed for binding to T2 cell line as described in Example 1. For the results presented in FIG. 1A, peptides were used at concentrations of 0 to 25 μg/ml. P16 peptide (◯), P16-1, P16-2 (▴), P84 (□) and P84-1 (▪), positive control (MUC-1 peptide) (+) and negative control (HLA-A3 binding peptide) (X). Results are expressed in mean fluorescence intensity (MFI). FIG. 1B presents a comparison of the stability of HLA-A2 peptide complexes of PAGE4 native and agonist peptides. T2 cells were incubated overnight with P16 peptide (◯), P16-1, P16-2 (▴), P84 (□) and P84-1 (▪) peptides at a concentration of 12.5 μg/ml and then were washed free of unbound peptide and incubated with brefeldin A to block delivery of new class 1 molecules to the cell surface. At the indicated times, cells were stained for the presence of surface peptide-HLA-A2 complexes. Results are expressed in relative percentage of binding compared with 100% at time 0.
The analogues of P16 were designated P16-1 and P16-2, and the analogue of P84 was designated as P84-1. These peptides bound to HLA-A2 at higher levels than their native peptides. Studies were then conducted to examine the ability of these peptides to bind HLA-A2 at various concentrations. […] Studies were then undertaken to examine the stability of the peptide-MHC complex for the peptides P16, P84, P16-1, P16-2 and P84-1. Each peptide was incubated with T2 cells overnight, the unbound peptides were washed off, and the cells were then incubated with Brefeldin A to block delivery of new class I molecules to the cell surface. Cells were analyzed for the presence of peptide-HLA-A2 complexes at various time points.
KTPPNPKHA (Synthetic peptide; also called P84-92) [P84 (native) PAGE4 peptide, amino acids 84-92]: the “percent of peptide-HLA-A2 complexes remaining over 8 hours” value was > 43.6%.

Consider YLPPNPKHV (also called P84-1) [P84 (84Y/85L/92V) PAGE4 agonist peptide], for which the “percent of peptide-HLA-A2 complexes remaining over 8 hours” value was > 43.6%.

For QLAPDVVAFV [P16 (17L) PAGE4 agonist peptide], the “percent of peptide-HLA-A2 complexes remaining over 8 hours” value is > 43.6%.

For YLAPDVVAFV (also called P16-2) [P16 (16Y/17L) PAGE4 agonist peptide], the “percent of peptide-HLA-A2 complexes remaining over 8 hours” value was > 43.6%.

The target of a further assay is T1, HLA-A2 molecules on T2 cells. The assay can be described thus: T2 cell HLA-A2 upregulation assay, flow cytometry, peptide 25 µg/ml. The procedure:
(§1) The primary amino acid sequence of human PAGE4 was analyzed for consensus motifs for novel HLA-A2 binding peptides. Two 10-mer peptides (P16-25 designated as P16 and P59-68 designated as P59) and one 9-mer peptide (P84-92 designated as P84) were identified and evaluated (Table 1). […] For this reason, five different analogues of native peptides were synthesized and were investigated for their binding ability to HLA-A2-positive T2 cells along with the native P16, P59 and P84 peptides. A MUC-1 peptide and a CEA HLA-A3 binding peptide (CAP-7) were used as a positive and negative control, respectively (Tsang et al., J Natl Cancer Inst 1995; 87:982-90).
Peptides were used at a concentration of 25 μg/ml. Amino acids are shown by the single-letter code. Substitution amino acids are indicated in bold italic and underlined. MUC-1 peptide is an HLA-A2 binding peptide and CAP-7 is an HLA-A3 binding CEA peptide. ^aResults are expressed in mean fluorescence intensity (MFI). Values in parentheses are fold increases as compared with the negative control.
As to B1, the “T2 binding (MFI)” value stood at 710 MFI and the “fold increase as compared with the negative control” value (shortened to “fold increase”) turned out to be 2.7 fold.

In the case of KTPPNPKHA (Synthetic peptide; also called P84-92) [P84 (native) PAGE4 peptide, amino acids 84-92], the “T2 binding (MFI)” value was found to be 270 MFI and the “fold increase” value worked out at 1.04 fold.

For the molecule YLPPNPKHV (also called P84-1) [P84 (84Y/85L/92V) PAGE4 agonist peptide], the “T2 binding (MFI)” value was 546 MFI and the “fold increase” value was 2.1 fold.

On to YLGDCQEMDV (also called P59-2) [P59 (59Y/60L/68V) PAGE4 analogue peptide], for which the “T2 binding (MFI)” value worked out at 384 MFI and the “fold increase” value stood at 1.5 fold.

B2: the “T2 binding (MFI)” value was determined as 309 MFI and the “fold increase” value turned out to be 1.2 fold.

In the case of QLAPDVVAFV [P16 (17L) PAGE4 agonist peptide], the “T2 binding (MFI)” value was 827 MFI and the “fold increase” value is 3.2 fold.

Turning to YLAPDVVAFV (also called P16-2) [P16 (16Y/17L) PAGE4 agonist peptide], the “T2 binding (MFI)” value turned out to be 790 MFI and the “fold increase” value came to 3 fold.

As for VEGDCQEMDL (Synthetic peptide; also called P59-68) [P59 (native) PAGE4 peptide, amino acids 59-68], the “T2 binding (MFI)” value amounted to 246 MFI and the “fold increase” value was 0.9 fold.

For the molecule VLGDCQEMDL (also called P59-1) [P59 (60L) PAGE4 analogue peptide], the “T2 binding (MFI)” value is 293 MFI and the “fold increase” value was 1.1 fold.

A further assay has the same target. In words: T2 cell HLA-A2 upregulation assay, flow cytometry. The procedure: as §1
(Flow cytometry measures light scatter and fluorescence of single cells or particles in a stream.)
Turning to VEGDCQEMDL (Synthetic peptide; also called P59-68) [P59 (native) PAGE4 peptide, amino acids 59-68], the binding result is “no binding (tested: 25 µg/ml)”.
